In paper doi:10.1101/2020.03.25.007906 (bioRxiv, 2020) one finds Kd data, which are given here for one molecule.

Test [1] concerns the target T1, purified recombinant drDnaA (Deinococcus radiodurans R1, UniProt Q9RYE7 1-466).
T1 sequence (looked up): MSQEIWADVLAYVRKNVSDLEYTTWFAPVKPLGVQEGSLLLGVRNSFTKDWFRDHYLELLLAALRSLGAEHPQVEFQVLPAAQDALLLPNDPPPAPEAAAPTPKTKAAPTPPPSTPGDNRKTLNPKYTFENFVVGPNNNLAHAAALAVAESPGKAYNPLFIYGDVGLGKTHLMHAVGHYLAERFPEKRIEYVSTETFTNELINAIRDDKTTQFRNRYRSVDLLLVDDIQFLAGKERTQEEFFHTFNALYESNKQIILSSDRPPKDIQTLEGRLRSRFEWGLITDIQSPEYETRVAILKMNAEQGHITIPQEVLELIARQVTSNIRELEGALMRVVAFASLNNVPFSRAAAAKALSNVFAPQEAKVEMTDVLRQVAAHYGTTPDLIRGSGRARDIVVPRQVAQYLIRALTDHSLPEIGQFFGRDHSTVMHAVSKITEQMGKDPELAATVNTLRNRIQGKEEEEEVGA
In words: SPR. A general note: In SPR one partner is held on a chip, and binding of the other changes the refractive index at the surface.

Test [2] concerns the target T2, purified recombinant drDnaB (Deinococcus radiodurans R1, UniProt Q9RWW6 1-448).
T2 sequence (looked up): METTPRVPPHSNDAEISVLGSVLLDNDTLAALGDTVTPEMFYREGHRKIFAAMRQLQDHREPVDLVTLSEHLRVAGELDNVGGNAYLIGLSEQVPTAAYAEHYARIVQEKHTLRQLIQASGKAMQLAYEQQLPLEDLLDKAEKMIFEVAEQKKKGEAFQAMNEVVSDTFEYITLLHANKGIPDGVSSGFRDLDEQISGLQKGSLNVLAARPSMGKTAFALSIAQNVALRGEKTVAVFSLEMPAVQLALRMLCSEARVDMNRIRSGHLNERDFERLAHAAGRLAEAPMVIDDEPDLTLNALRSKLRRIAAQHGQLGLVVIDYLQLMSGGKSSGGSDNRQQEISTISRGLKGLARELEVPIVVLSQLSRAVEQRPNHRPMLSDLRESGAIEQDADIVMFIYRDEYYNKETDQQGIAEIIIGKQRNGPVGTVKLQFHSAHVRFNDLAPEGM
In words: SPR.

B1: recombinant PprA (natural protein, Deinococcus radiodurans, UniProt O32504 1-300, looked up)
chain: MLPLAFLICSGHNKGSMARAKAKDQTDGIYAAFDTLMSTAGVDSQIAALAASEADAGTLDAALTQSLQEAQGRWGLGLHHLRHEARLTDDGDIEILTDGRPSARVSEGFGALAQAYAPMQALDERGLSQWAALGEGYRAPGDLPLAQLKVLIEHARDFETDWSAGRGETFQRVWRKGDTLFVEVARPASAEAALSDAAWDVIASIKDRAFQRELMRRSEKDGMLGALLGARHAGAKANLAQLPEAHFTVQAFVQTLSGAAARNAEEYRAALKTAAAALEEYQGVTTRQLSEVLRHGLRES
As a reminder, the Kd is a measure of binding affinity in units of concentration. Consider B1, for which the Kd in test [1] stood at 541 nM; in test [2], 971 nM.
